The target of test [1] is T1, DDR2 antigen overexpressed on cells (UniProt Q16832).
T1 sequence (looked up): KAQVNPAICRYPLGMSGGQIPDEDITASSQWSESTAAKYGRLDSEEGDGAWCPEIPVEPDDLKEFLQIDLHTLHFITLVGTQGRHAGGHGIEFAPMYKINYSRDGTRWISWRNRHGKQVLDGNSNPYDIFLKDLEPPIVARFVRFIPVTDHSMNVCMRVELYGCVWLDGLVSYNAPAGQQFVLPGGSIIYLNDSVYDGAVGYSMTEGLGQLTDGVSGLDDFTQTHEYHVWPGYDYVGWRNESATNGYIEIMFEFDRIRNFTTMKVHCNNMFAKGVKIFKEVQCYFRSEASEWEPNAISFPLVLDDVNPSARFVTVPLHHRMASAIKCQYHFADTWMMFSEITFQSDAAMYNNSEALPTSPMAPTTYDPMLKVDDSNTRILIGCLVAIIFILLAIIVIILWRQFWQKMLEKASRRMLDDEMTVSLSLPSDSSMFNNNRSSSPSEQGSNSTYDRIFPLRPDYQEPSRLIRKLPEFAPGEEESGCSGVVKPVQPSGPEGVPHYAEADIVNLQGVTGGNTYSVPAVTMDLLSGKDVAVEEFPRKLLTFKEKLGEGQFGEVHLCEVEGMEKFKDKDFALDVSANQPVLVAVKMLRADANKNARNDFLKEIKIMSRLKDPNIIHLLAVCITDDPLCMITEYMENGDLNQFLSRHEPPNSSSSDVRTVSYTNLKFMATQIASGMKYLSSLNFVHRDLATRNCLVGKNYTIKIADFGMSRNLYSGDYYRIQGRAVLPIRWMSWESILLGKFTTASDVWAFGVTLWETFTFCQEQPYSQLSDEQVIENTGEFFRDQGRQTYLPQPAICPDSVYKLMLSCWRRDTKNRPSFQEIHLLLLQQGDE
Description: flow cytometry on 293T DDR2 cells, anti-His-488 secondary; control on 293T DDR2 R3 0.94%; on parental 293T cells 1A1-1A12 R3 0.44% and control R3 0.46%. A general note: In flow cytometry, cells or beads pass a laser one at a time.

The next test deals with T2, bovine serum albumin (bovine, UniProt P02769 25-607).
T2 construct: also called BSA; negative control protein
T2 sequence (P02769 25-607 limits assumed): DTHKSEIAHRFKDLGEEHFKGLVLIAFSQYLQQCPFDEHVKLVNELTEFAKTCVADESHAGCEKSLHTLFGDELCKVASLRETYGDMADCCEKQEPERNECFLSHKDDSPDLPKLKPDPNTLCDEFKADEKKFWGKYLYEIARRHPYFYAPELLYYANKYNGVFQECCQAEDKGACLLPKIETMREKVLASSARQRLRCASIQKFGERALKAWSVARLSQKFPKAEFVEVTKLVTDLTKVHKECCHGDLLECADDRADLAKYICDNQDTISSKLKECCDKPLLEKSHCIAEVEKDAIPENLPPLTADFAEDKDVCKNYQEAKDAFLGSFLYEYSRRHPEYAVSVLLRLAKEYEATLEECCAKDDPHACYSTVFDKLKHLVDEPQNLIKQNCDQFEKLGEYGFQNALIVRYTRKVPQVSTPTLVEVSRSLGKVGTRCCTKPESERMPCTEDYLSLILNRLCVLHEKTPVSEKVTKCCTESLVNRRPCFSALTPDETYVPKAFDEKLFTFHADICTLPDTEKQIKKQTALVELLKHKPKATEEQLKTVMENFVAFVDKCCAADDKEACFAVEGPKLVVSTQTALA
Description: ELISA at one antibody amount, wells coated with antigen-DDR2 or BSA, OD450. The protocol:
The Flag tag was fused into the nano-antibody gene coding sequence and five DDR2 antibodies with Flag tag were expressed and purified: TAT, 1A5, 1A12, 1B2, 1B3; Then, the extracellular segment of DDR2 antigen was used to coat at 100 ng/well→goat serum was used to block overnight→PBS was used to wash three times, anti-DDR2 (five purified DDR2 antibodies, all comprising Flag tag) 200 ng/well, 37° C. 1 h→Anti Flag (Sigma, F1804-200UG, 1 mg/ml) 1:2500, 37° C. 1 h→G&M (HRP) 1:5000, 37° C. 30 min (horseradish peroxidase labeled anti Flag antibody amplification signal, TMB staining)→TMB staining at 37° C. 30 min→1M HCl for termination; A blank control was prepared simultaneously.
+[0199]5 nano-antibodies that were expressed and purified and identified as correct in the previous step, along with the extracellular segment of DDR2 antigen and the negative control protein bovine serum albumin (BSA), were subjected to ELISA validation.
On the technique in general: ELISA stands for enzyme-linked immunosorbent assay.

The target in the next test is T3, mouse DDR2 in tissue (mouse, UniProt Q62371 22-854).
T3 construct: whole, on cells; Endogenous protein in tissue slices, not a purified protein; also called DDR2 in mouse lung tissue slices; DDR2 in the mouse retina
T3 sequence (looked up): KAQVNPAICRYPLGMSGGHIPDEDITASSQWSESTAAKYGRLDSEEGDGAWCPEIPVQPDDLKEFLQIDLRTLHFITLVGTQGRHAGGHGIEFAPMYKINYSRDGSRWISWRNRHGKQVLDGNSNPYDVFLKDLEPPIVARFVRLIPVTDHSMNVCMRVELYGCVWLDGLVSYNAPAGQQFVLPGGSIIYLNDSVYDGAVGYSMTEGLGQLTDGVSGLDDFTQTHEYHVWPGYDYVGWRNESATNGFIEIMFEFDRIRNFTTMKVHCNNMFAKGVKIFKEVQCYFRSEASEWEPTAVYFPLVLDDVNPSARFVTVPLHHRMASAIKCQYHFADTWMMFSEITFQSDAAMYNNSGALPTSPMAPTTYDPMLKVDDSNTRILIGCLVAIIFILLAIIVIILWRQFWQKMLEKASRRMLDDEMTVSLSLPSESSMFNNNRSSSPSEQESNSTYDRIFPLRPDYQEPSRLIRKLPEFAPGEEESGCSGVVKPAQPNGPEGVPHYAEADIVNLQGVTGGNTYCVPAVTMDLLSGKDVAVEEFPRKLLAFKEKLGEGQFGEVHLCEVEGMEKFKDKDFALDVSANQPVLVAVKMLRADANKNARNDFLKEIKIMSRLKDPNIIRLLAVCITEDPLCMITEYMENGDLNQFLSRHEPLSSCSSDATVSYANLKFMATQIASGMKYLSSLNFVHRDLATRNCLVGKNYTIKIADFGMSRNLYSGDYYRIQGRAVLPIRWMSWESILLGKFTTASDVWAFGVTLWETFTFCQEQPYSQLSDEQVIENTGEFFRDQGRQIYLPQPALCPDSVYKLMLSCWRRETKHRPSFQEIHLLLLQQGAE
Description: near-infrared imaging of mouse lung tissue slices stained with ICG labeled 1A12 (untreated, bleomycin, mTGF-β). How it is done:
Fresh lung tissue from normal mice was cut into a thickness of […]. One was used as an untreated control, one was induced with bleomycin, and the other one was induced with mTGF-β cytokines, both for 72 hours (both treatment groups were able to promote DDR2 expression). Then, each group was stained with ICG labeled DDR2 nano-antibody 1A12 (1 ug per sample) for 30 minutes, followed by washing multiple times with PBS to remove non-specific staining. Then, imaging was performed using a live imaging device.

For test [2], the target named is T4, human DDR2 in lung tissue (human, UniProt Q16832 22-855).
T4 construct: whole, on cells; Endogenous protein in tissue slices; also called DDR2 in lung tissue of IPF patients
T4 sequence (looked up): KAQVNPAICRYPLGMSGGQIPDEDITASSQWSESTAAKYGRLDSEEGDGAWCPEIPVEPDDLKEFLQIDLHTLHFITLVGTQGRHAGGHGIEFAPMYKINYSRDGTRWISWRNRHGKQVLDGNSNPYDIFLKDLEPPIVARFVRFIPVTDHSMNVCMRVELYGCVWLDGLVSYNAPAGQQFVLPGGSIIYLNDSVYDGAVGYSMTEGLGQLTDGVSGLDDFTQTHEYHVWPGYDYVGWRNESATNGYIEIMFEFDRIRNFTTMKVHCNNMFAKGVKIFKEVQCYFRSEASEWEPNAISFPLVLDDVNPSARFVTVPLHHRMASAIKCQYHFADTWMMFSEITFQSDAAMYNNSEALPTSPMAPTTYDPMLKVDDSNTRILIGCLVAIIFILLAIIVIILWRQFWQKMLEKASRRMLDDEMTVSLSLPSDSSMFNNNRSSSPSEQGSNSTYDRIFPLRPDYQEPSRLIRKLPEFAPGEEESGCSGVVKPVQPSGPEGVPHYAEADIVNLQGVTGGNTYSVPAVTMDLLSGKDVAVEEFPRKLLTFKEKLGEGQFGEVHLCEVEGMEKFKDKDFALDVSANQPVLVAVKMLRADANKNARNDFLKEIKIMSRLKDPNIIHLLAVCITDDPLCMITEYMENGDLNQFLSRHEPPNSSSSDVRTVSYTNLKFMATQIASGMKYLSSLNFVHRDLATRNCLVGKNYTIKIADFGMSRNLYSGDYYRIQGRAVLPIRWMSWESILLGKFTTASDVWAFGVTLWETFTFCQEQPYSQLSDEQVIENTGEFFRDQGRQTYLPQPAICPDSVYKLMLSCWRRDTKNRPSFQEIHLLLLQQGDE
Nature of the test: imaging of lung tissue slices of IPF patients and normal donors stained with ICG labeled 1A12. The protocol: Lung tissues from normal donors and patients with idiopathic pulmonary fibrosis (IPF) were cut to a thickness of 600 μm in vitro, with high expression of DDR2 in IPF patients' lung tissues and low or no expression of DDR2 in normal donors' lungs. The Normal group was used as control, and lung tissue slices from IPF patients were used as the experimental group. After staining with ICG labeled DDR2 nano-antibody 1A12, in vitro live imaging was performed.

Test [3] concerns the target T5, human DDR2 extracellular segment (human, UniProt Q16832 22-399).
T5 construct: range 22-399; In BLI it carried a His tag (printed 'Hig tag') and was captured on Ni-NTA; also called extracellular segment of DDR2 antigen; extracellular segment protein of DDR2 antigen
T5 sequence (looked up): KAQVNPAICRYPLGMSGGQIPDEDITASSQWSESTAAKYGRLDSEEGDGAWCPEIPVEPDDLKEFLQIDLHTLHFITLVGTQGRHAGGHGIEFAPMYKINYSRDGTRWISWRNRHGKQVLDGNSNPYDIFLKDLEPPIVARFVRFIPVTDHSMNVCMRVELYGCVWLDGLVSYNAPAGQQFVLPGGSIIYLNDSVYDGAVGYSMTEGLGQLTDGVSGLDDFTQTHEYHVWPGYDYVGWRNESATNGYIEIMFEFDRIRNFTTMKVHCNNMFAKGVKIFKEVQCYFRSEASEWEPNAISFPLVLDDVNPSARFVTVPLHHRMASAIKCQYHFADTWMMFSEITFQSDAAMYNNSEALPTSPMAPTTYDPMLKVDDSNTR
Description: ELISA, plate coated with DDR2 extracellular segment, Flag-tagged nano-antibody titrated, anti-Flag then HRP secondary, TMB, OD450. On the set-up: unit not given here.

B1: heterodimeric anti-DDR2 nano-antibody 1A1-1A12 (bispecific antibody, part only; not given: His tag, not shown: small tags and cut ends)
chain, part: EVQLVESGGGLVQPGGSLRLSCAASGYILSPNVMGWFRQAPGKGRELVAAISWGDGRTYYPDSVEGRFTISRDNAKRMVYLQMNSLRAEDTAVYYCAASRKGYPSTRSDPYNYWGQGTQVTVSSGGGSGGGSGGGSEVQLVESGGGLVQPGGSLRLSCAASGRIFSINVMGWFRQAPGKGRELVAAINTRGGSTYYPDSVEGRFTISRDNAKRMVYLQMNSLRAEDTAVYYCAASRKGYPSTRSDPYDYWGQGTQVTVSS
Consider B1, for which the R3, percent of cells in the FITC-H positive gate in test [1] came out at 33%.

B2: anti-DDR2 nano-antibody 1B2 (VHH)
VHH: EVQLVESGGGLVQPGGSLRLSCAASGYIFSIYAMGWFRQAPGKGRELVARISWGDGSTWYPDSVEGRFTISRDNAKRMVYLQMNSLRAEDTAVYYCAAAIKGRGVVTQLGYNYWGQGTQVTVSS
notes: also called 1B2-VHH
For B2, in the test with bovine serum albumin, the binding result was “no binding”.

B3: anti-DDR2 nano-antibody 1A5 (VHH)
VHH: EVQLVESGGGLVQPGGSLRLSCAASGITLSLYIMGWFRQAPGKGRELVAAISRTGGSTYYPDSVEGRFTISRDNAKRMVYLQMNSLRAEDTAVYYCAADFYGNATLGYNYWGQGTQVTVSS
notes: also called 1A5-VHH
For the molecule B3, the binding result with bovine serum albumin is on record as “no binding”.

B4: anti-DDR2 nano-antibody 1B3 (VHH)
VHH: EVQLVESGGGLVQPGGSLRLSCAASGDTFSYYVMGWFRQAPGKGRELVAAISRTGGSTYYPDSVEGRFTISRDNAKRMVYLQMNSLRAEDTAVYYCAADPYISGTLGYNYWGQGTQVTVSS
notes: also called 1B3-VHH
B4: the binding result in the test with bovine serum albumin is listed as “no binding”.

B5: ICG labeled DDR2 nano-antibody 1A12 (VHH)
VHH: EVQLVESGGGLVQPGGSLRLSCAASGYILSPNVMGWFRQAPGKGRELVAAISWGDGRTYYPDSVEGRFTISRDNAKRMVYLQMNSLRAEDTAVYYCAASRKGYPSTRSDPYNYWGQGTQVTVSS
modifications: indocyanine green (ICG) coupled with ICG-NHS; sites not stated
notes: also called ICG labeled 1A12 nano-antibody; Nb-DDR2 labeled with indocyanine green
Regarding B5, the binding result (in the test with mouse DDR2 in tissue; in test [2]) was “binds” each time.

B6: anti-DDR2 nano-antibody 1A1 (VHH)
VHH: EVQLVESGGGLVQPGGSLRLSCAASGRIFSINVMGWFRQAPGKGRELVAAINTRGGSTYYPDSVEGRFTISRDNAKRMVYLQMNSLRAEDTAVYYCAASRKGYPSTRSDPYDYWGQGTQVTVSS
notes: Expressed in E. coli BL21(DE3); also called 1A1-VHH
B6: in the test with bovine serum albumin, the binding result is “no binding”.

B7: anti-DDR2 nano-antibody 1A12 (VHH)
VHH: EVQLVESGGGLVQPGGSLRLSCAASGYILSPNVMGWFRQAPGKGRELVAAISWGDGRTYYPDSVEGRFTISRDNAKRMVYLQMNSLRAEDTAVYYCAASRKGYPSTRSDPYNYWGQGTQVTVSS
notes: also called 1A12-VHH; DDR2 antibody 1A12
With B7, in test [3], the “EC50 (read off the curve)” value is roughly 1. For the same molecule, the binding result in the test with bovine serum albumin is recorded as “no binding”.

(Values after patent publication US20260167727A1 (FIBRO BIOMED TECHNOLOGY GUANGZHOU, published 2026).)
